The data set “SEC-MALS” deals with the molecule itself. Briefly: SEC-MALS.
The data set “SAXS” deals with the molecule itself. Nature of the data set: SAXS.

B1: RAD52(1–212) (domain or fragment, human, UniProt P43351 1-212, looked up)
chain: MSGTEEAILGGRDSHPAAGGGSVLCFGQCQYTAEEYQAIQKALRQRLGPEYISSRMAGGGQKVCYIEGHRVINLANEMFGYNGWAHSITQQNVDFVDLNNGKFYVGVCAFVRVQLKDGSYHEDVGYGVSEGLKSKALSLEKARKEAVTDGLKRALRSFGNALGNCILDKDYLRSLNKLPRQLPLEVDLTKAKRQDLEPSVEEARYNSCRPNM
In the case of B1, the figures for the “stoichiometry N” value in “SEC-MALS” and in the data set “SAXS” were 9.7 subunits and 10 subunits, respectively.

B2: RAD52(1–303) (domain or fragment, human, UniProt P43351 1-303, looked up)
chain: MSGTEEAILGGRDSHPAAGGGSVLCFGQCQYTAEEYQAIQKALRQRLGPEYISSRMAGGGQKVCYIEGHRVINLANEMFGYNGWAHSITQQNVDFVDLNNGKFYVGVCAFVRVQLKDGSYHEDVGYGVSEGLKSKALSLEKARKEAVTDGLKRALRSFGNALGNCILDKDYLRSLNKLPRQLPLEVDLTKAKRQDLEPSVEEARYNSCRPNMALGHPQLQQVTSPSRPSHAVIPADQDCSSRSLSSSAVESEATHQRKLRQKQLQQQFRERMEKQQVRVSTPSAEKSEAAPPAPPVTHSTPVT
Take B2: the “stoichiometry N” value in the data set “SEC-MALS” came out at 9.5 subunits.
